Experimental data reported in article PMC6962393 (2020).

What was measured:
[1] = biological target: FN-B, recombinant human fibronectin extra domain B (EDB) as a single domain (human); experiment: ELISA
[2] = biological target: FN-67B89, human fibronectin EDB flanked by its surrounding type III domains (human); experiment: ELISA
FN-67B89, human fibronectin EDB flanked by its surrounding type III domains (human), sequence (chain, as listed by the source): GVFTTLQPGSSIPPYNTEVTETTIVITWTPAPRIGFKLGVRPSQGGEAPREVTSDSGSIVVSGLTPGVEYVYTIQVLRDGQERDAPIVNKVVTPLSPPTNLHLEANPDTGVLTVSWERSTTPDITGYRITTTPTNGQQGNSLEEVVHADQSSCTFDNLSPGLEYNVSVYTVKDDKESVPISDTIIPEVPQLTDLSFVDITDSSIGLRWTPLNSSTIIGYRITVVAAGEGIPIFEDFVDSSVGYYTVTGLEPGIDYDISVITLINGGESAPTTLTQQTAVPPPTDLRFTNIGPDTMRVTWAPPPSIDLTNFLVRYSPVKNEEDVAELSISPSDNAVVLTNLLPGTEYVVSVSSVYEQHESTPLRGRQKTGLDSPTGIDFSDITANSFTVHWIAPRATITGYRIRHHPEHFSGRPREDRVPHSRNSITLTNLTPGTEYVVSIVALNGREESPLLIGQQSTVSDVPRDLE

FN-B, recombinant human fibronectin extra domain B (EDB) as a single domain (human), sequence (chain, as listed by the source): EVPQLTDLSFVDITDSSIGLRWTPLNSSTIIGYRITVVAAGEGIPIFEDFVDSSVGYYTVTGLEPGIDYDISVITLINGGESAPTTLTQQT

| Binder | Kd [1] [nM] | Kd [2] [nM] |
| --- | --- | --- |
| SVCKQANFVRIRLCRRDSDCPGACICRGNGYCG (designed binder) [Trx-MC-FN-060, Thioredoxin-A fusion of cystine-knot miniprotein MC-FN-060] | 10.3 | 20.4 |
| SVCAHYNTIRVRLCRRDSDCPGACICRGNGYCG (designed binder) [Trx-MC-FN-040, Thioredoxin-A fusion of cystine-knot miniprotein MC-FN-040] | 24 | 29.4 |
| PMCTQRKNRIRLCRRDSDCTGACICRGNGYCG (designed binder) [Trx-MC-FN-010, Thioredoxin-A fusion of cystine-knot miniprotein MC-FN-010] | 6.07 | 10.5 |
| WKCQPTNGYRIRCRRDSDCPGDCICRGNGYCG (designed binder) [Trx-MC-FN-030, Thioredoxin-A fusion of cystine-knot miniprotein MC-FN-030] | 234 | 232 |
| SVCKNVSIMRIRLCRRDSDCPGACICRGNGYCG (designed binder) [Trx-MC-FN-050, Thioredoxin-A fusion of cystine-knot miniprotein MC-FN-050] | 40.5 | 67.8 |
